Test results from PMC10540216, “Activity Guided Azide-methyllysine Photo-trapping for Substrate Profiling of Lysine Demethylases” (Journal of the American Chemical Society, 2023).

Tested on: KDM4A-I71AzF
Test: CASI: photo-crosslinking with HEK293T cell extracts, StrepTactin enrichment and LC-MS/MS proteomics;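 also: lysates from HEK293T cells pretreated with a KDM4 inhibitor to raise proteome methylation, affinity-purified after ±UV, gel-resolved, trypsin-digested, with exclusive unique peptides per protein averaged per condition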
Type: binding, human
Settings: sheet "Final results but with 0.01"

Molecule	Fold change (+UV/-UV)
ACON_HUMAN (protein, UniProt Q99798 28-780, looked up) Aconitate hydratase, …: QRAKVAMSHFEPNEYIHYDLLEKNINIVRKRLNRPLTLSEKIVYGHLDDPASQEIERGKSYLRLRPDRVAMQDATAQMAMLQFISSGLSKVAVPSTIHCDHLIEAQVGGEKDLRRAKDINQEVYNFLATAGAKYGVGFWKPGSGIIHQIILENYAYPGVLLIGTDSHTPNGGGLGGICIGVGGADAVDVMAGIPWELKCPKVIGVKLTGSLSGWSSPKDVILKVAGILTVKGGTGAIVEYHGPGVDSISCTGMATICNMGAEIGATTSVFPYNHRMKKYLSKTGREDIANLADEFKDHLVPDPGCHYDQLIEINLSELKPHINGPFTPDLAHPVAEVGKVAEKEGWPLDIRVGLIGSCTNSSYEDMGRSAAVAKQALAHGLKCKSQFTITPGSEQIRATIERDGYAQILRDLGGIVLANACGPCIGQWDRKDIKKGEKNTIVTSYNRNFTGRNDANPETHAFVTSPEIVTALAIAGTLKFNPETDYLTGTDGKKFRLEAPDADELPKGEFDPGQDTYQHPPKDSSGQHVDVSPTSQRLQLLEPFDKWDGKDLEDLQILIKVKGKCTTDHISAAGPWLKFRGHLDNISNNLLIGAINIENGKANSVRNAVTQEFGPVPDTARYYKKHGIRWVVIGDENYGEGSSREHAALEPRHLGGRAIITKSFARIHETNLKKQGLLPLTFADPADYNKIHPVDKLTIQGLKDFTPGKPLKCIIKHPNGTQETILLNHTFNETQIEWFRAGSALNRMKELQQ	0.4
TOP1_HUMAN (protein, UniProt P11387 2-765, looked up) DNA topoisomerase 1: SGDHLHNDSQIEADFRLNDSHKHKDKHKDREHRHKEHKKEKDREKSKHSNSEHKDSEKKHKEKEKTKHKDGSSEKHKDKHKDRDKEKRKEEKVRASGDAKIKKEKENGFSSPPQIKDEPEDDGYFVPPKEDIKPLKRPRDEDDADYKPKKIKTEDTKKEKKRKLEEEEDGKLKKPKNKDKDKKVPEPDNKKKKPKKEEEQKWKWWEEERYPEGIKWKFLEHKGPVFAPPYEPLPENVKFYYDGKVMKLSPKAEEVATFFAKMLDHEYTTKEIFRKNFFKDWRKEMTNEEKNIITNLSKCDFTQMSQYFKAQTEARKQMSKEEKLKIKEENEKLLKEYGFCIMDNHKERIANFKIEPPGLFRGRGNHPKMGMLKRRIMPEDIIINCSKDAKVPSPPPGHKWKEVRHDNKVTWLVSWTENIQGSIKYIMLNPSSRIKGEKDWQKYETARRLKKCVDKIRNQYREDWKSKEMKVRQRAVALYFIDKLALRAGNEKEEGETADTVGCCSLRVEHINLHPELDGQEYVVEFDFLGKDSIRYYNKVPVEKRVFKNLQLFMENKQPEDDLFDRLNTGILNKHLQDLMEGLTAKVFRTYNASITLQQQLKELTAPDENIPAKILSYNRANRAVAILCNHQRAPPKTFEKSMMNLQTKIDAKKEQLADARRDLKSAKADAKVMKDAKTKKVVESKKKAVQRLEEQLMKLEVQATDREENKQIALGTSKLNYLDPRITVAWCKKWGVPIEKIYNKTQREKFAWAIDMADEDYEF	0
DC1I2_HUMAN (protein, UniProt Q13409 2-638, looked up) Cytoplasmic dynein 1 …: SDKSELKAELERKKQRLAQIREEKKRKEEERKKKETDQKKEAVAPVQEESDLEKKRREAEALLQSMGLTPESPIVFSEYWVPPPMSPSSKSVSTPSEAGSQDSGDGAVGSRTLHWDTDPSVLQLHSDSDLGRGPIKLGMAKITQVDFPPREIVTYTKETQTPVMAQPKEDEEEDDDVVAPKPPIEPEEEKTLKKDEENDSKAPPHELTEEEKQQILHSEEFLSFFDHSTRIVERALSEQINIFFDYSGRDLEDKEGEIQAGAKLSLNRQFFDERWSKHRVVSCLDWSSQYPELLVASYNNNEDAPHEPDGVALVWNMKYKKTTPEYVFHCQSAVMSATFAKFHPNLVVGGTYSGQIVLWDNRSNKRTPVQRTPLSAAAHTHPVYCVNVVGTQNAHNLISISTDGKICSWSLDMLSHPQDSMELVHKQSKAVAVTSMSFPVGDVNNFVVGSEEGSVYTACRHGSKAGISEMFEGHQGPITGIHCHAAVGAVDFSHLFVTSSFDWTVKLWTTKNNKPLYSFEDNADYVYDVMWSPTHPALFACVDGMGRLDLWNLNNDTEVPTASISVEGNPALNRVRWTHSGREIAVGDSEGQIVIYDVGEQIAVPRNDEWARFGRTLAEINANRADAEEEAATRIPA	1
SYDM_HUMAN (protein, UniProt Q6PI48 48-645, looked up) Aspartate--tRNA ligase, …: VVRTNTCGELRSSHLGQEVTLCGWIQYRRQNTFLVLRDFDGLVQVIIPQDESAASVKKILCEAPVESVVQVSGTVISRPAGQENPKMPTGEIEIKVKTAELLNACKKLPFEIKNFVKKTEALRLQYRYLDLRSFQMQYNLRLRSQMVMKMREYLCNLHGFVDIETPTLFKRTPGGAKEFLVPSREPGKFYSLPQSPQQFKQLLMVGGLDRYFQVARCYRDEGSRPDRQPEFTQIDIEMSFVDQTGIQSLIEGLLQYSWPNDKDPVVVPFPTMTFAEVLATYGTDKPDTRFGMKIIDISDVFRNTEIGFLQDALSKPHGTVKAICIPEGAKYLKRKDIESIRNFAADHFNQEILPVFLNANRNWNSPVANFIMESQRLELIRLMETQEEDVVLLTAGEHNKACSLLGKLRLECADLLETRGVVLRDPTLFSFLWVVDFPLFLPKEENPRELESAHHPFTAPHPSDIHLLYTEPKKARSQHYDLVLNGNEIGGGSIRIHNAELQRYILATLLKEDVKMLSHLLQALDYGAPPHGGIALGLDRLICLVTGSPSIRDVIAFPKSFRGHDLMSNTPDSVPPEELKPYHIRVSKPTDSKAERAH	1.2
PNPT1_HUMAN (protein, UniProt Q8TCS8 46-783, looked up) Polyribonucleotide …: AVAVDLGNRKLEISSGKLARFADGSAVVQSGDTAVMVTAVSKTKPSPSQFMPLVVDYRQKAAAAGRIPTNYLRREIGTSDKEILTSRIIDRSIRPLFPAGYFYDTQVLCNLLAVDGVNEPDVLAINGASVALSLSDIPWNGPVGAVRIGIIDGEYVVNPTRKEMSSSTLNLVVAGAPKSQIVMLEASAENILQQDFCHAIKVGVKYTQQIIQGIQQLVKETGVTKRTPQKLFTPSPEIVKYTHKLAMERLYAVFTDYEHDKVSRDEAVNKIRLDTEEQLKEKFPEADPYEIIESFNVVAKEVFRSIVLNEYKRCDGRDLTSLRNVSCEVDMFKTLHGSALFQRGQTQVLCTVTFDSLESGIKSDQVITAINGIKDKNFMLHYEFPPYATNEIGKVTGLNRRELGHGALAEKALYPVIPRDFPFTIRVTSEVLESNGSSSMASACGGSLALMDSGVPISSAVAGVAIGLVTKTDPEKGEIEDYRLLTDILGIEDYNGDMDFKIAGTNKGITALQADIKLPGIPIKIVMEAIQQASVAKKEILQIMNKTISKPRASRKENGPVVETVQVPLSKRAKFVGPGGYNLKKLQAETGVTISQVDEETFSVFAPTPSAMHEARDFITEICKDDQEQQLEFGAVYTATITEIRDTGVMVKLYPNMTAVLLHNTQLDQRKIKHPTALGLEVGQEIQVKYFGRDPADGRMRLSRKVLQSPATTVVRTLNDRSSIVMGEPISQSSSNSQ	0
